Reference: PMC6444013, “Development of a fluorescence-based method for the rapid determination of Zika virus polymerase activity and the screening of antiviral drugs” (Scientific Reports, 2019)

System: T1, Nc1ncnc2c1ncn2[C@@H]1O[C@H](COP(=O)(O)OP(=O)(O)OP(=O)(O)O)[C@@H](O)[C@H]1O
T1 construct: RdRp domain residues 275-903 of NS5, cut from the genome polyprotein; E. coli BL21(DE3)-pRIL; 75 kDa
Test: purified protein
Assay type: biochemical, Zika virus
Settings: poly-U 3 μg/mL, ATP 200–2250 μM, 2.5 mM MnCl2, pH 7.5, 30 °C

“ZIKV RdRp (ZIKV NS5 RdRp domain) (Zika virus)” gave a Km of 561 ± 38 µM.
